# From the supplement of paper PMC7877785
# ± gives the uncertainty stated by the source.
# Experiment: self-splicing fitness, log relative to wild type (ln ratio); higher = more splicing; Tetrahymena group I intron in knt gene, E. coli kanamycin selection, DiMSum; sequences stand for … in CUCUCU…GGAGGGAAAAGUUAUCAGGCAUGCACCUGGUAGCUAGUCUUUAAACCAAUAGAUUGCAUCGGUUUAAAAGGCAAGACCGUCAAAUUGCGGGAAAGGGGUCAACAGCCGUUCAGUACCAAGUCUCAGGGGAAACUUUGAGAUGGCCUUGCAAAGGGUAUGGUAAUAAGCUGACGGACAUGGUCCUAACCACGCAGCCAAGUCCUAAGUCAACAGAUCUUCUGUUGAUAUGGAUGCAGUUCACAGACUAAAUGUCGGUCGGGGAAGAUGUAUUCUUCUCAUAAGAUAUAGUCGGACCUCUCCUUAAUGGGAGCUAGCGGAUGAAGUGAUGCAACACUGGAGCCGCUGGGAACUAAUUUGUAUGCGAAAGUAUAUUGAUUAGUUUUGGAGUACUCGUGGUCG
# Procedure, shortened: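 DiMSum derived fitness as the error-weighted combination of fold changes across replicates, kanamycin versus no kanamycin, normalised to wild type. E. coli BL21(DE3) held the library, which randomised all eight P1ex-region intron nucleotides within the knt kanamycin-resistance gene on pET-22b(+). Six replicate transformations grew overnight at 37°C or 30°C on LB agar with or without 25 μg/mL kanamycin, also containing 100 μg/mL carbenicillin, 50 μM IPTG and 0.2% rhamnose, and pooled colonies were amplicon-sequenced on an Illumina HiSeq 2500.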
Sequence,self-splicing fitness (ln) (30 °C),self-splicing fitness (ln) (37 °C)
AACCAGCAAUAUUACGUCUA,-0.091 ± 0.062,-0.6 ± 0.067
GCUCAGCAAUAUUACGAUUA,-0.516 ± 0.072,-0.287 ± 0.08
GUAGAGCAAUAUUACGACCG,-1.28 ± 0.2,-1.98 ± 0.46
UGGCAGCAAUAUUACGACGC,–,-1.72 ± 0.24
UCGAAGCAAUAUUACGGUAA,-2.11 ± 0.16,-0.334 ± 0.13
AGGCAGCAAUAUUACGUGCU,-2.46 ± 0.12,-1.5 ± 0.1
CAGGAGCAAUAUUACGGAAG,-2.2 ± 0.13,-1.67 ± 0.14
AAAGAGCAAUAUUACGUCCC,-2.1 ± 0.28,-1.07 ± 0.35
ACAUAGCAAUAUUACGCAGU,-3.57 ± 0.28,-2.84 ± 0.36
UGCGAGCAAUAUUACGGUAA,-2.4 ± 0.17,-2.22 ± 0.16
AAGUAGCAAUAUUACGUGCA,-0.781 ± 0.074,-0.196 ± 0.098
CUAUAGCAAUAUUACGCUUC,-2.46 ± 0.36,-1.14 ± 0.31
GUAUAGCAAUAUUACGCAGC,-2.32 ± 0.37,-1.25 ± 0.33
CGGUAGCAAUAUUACGCGAG,-3.58 ± 0.31,-2.36 ± 0.4
UUCUAGCAAUAUUACGUGUA,-1.26 ± 0.08,-0.8 ± 0.094
CCGAAGCAAUAUUACGGCGG,-3.48 ± 0.15,-2.15 ± 0.17
GUCUAGCAAUAUUACGAAAU,0.0935 ± 0.11,0.4 ± 0.1
GAUGAGCAAUAUUACGCACC,-1.94 ± 0.44,-1.13 ± 0.31
AGUCAGCAAUAUUACGUCUA,-0.83 ± 0.072,-0.792 ± 0.071
UGACAGCAAUAUUACGGGUU,-4.59 ± 0.41,-2.79 ± 0.2
GUAUAGCAAUAUUACGUCGG,-3.48 ± 0.26,-1.31 ± 0.22
CUGUAGCAAUAUUACGAUGC,-2.62 ± 0.17,–
AUACAGCAAUAUUACGCGAU,-3.88 ± 0.33,-1.94 ± 0.21
AUACAGCAAUAUUACGGGAG,-3.35 ± 0.15,-2.12 ± 0.13
GAGGAGCAAUAUUACGUAUG,-3.97 ± 0.47,-2.83 ± 0.4
AACAAGCAAUAUUACGGGAU,-2.27 ± 0.098,-1.01 ± 0.1

Sequence,self-splicing fitness (ln) (30 °C),self-splicing fitness (ln) (37 °C)
GCCAAGCAAUAUUACGAGAU,-2.41 ± 0.14,-2.1 ± 0.17
UUUCAGCAAUAUUACGGACG,-0.348 ± 0.18,0.598 ± 0.23
CAACAGCAAUAUUACGUUUU,-3.57 ± 0.11,-2.19 ± 0.11
CCAAAGCAAUAUUACGCCGU,-3.25 ± 0.29,-3.3 ± 0.35
UAGAAGCAAUAUUACGCUGU,-3.73 ± 0.26,-0.977 ± 0.15
UACGAGCAAUAUUACGAUGU,-3.35 ± 0.32,-2.46 ± 0.34
GGAGAGCAAUAUUACGUAUU,-4.02 ± 0.31,-1.22 ± 0.16
AAUGAGCAAUAUUACGAAUU,-2.71 ± 0.28,-2.3 ± 0.39
UUGUAGCAAUAUUACGAUCA,-0.608 ± 0.19,-0.00925 ± 0.14
CUCAAGCAAUAUUACGUUUG,-2.21 ± 0.12,-2.8 ± 0.15
ACCAAGCAAUAUUACGACUC,-1.56 ± 0.17,-0.459 ± 0.2
UCCGAGCAAUAUUACGCCCA,-4.21 ± 0.36,-2.83 ± 0.35
UCUUAGCAAUAUUACGGCGC,-2.61 ± 0.39,–
GGGCAGCAAUAUUACGCGGA,-1.23 ± 0.15,-0.758 ± 0.1
UCCGAGCAAUAUUACGGUCC,-3.08 ± 0.24,-3.35 ± 0.33
ACUGAGCAAUAUUACGUAUG,-3.4 ± 0.15,-1.08 ± 0.14
UACUAGCAAUAUUACGAGCU,-2.4 ± 0.24,–
GCACAGCAAUAUUACGAAUU,-1.19 ± 0.077,-0.471 ± 0.085
GACUAGCAAUAUUACGCCAA,–,-1.6 ± 0.29
CUCUAGCAAUAUUACGCAGA,-4.08 ± 0.31,-3.59 ± 0.22
UAAGAGCAAUAUUACGGCAA,-2.23 ± 0.18,-2.03 ± 0.14
CCUAAGCAAUAUUACGUCUG,-2.15 ± 0.2,-2 ± 0.24
GCUUAGCAAUAUUACGGAUC,-0.319 ± 0.092,0.437 ± 0.11
UUUCAGCAAUAUUACGAACU,-1.23 ± 0.092,0.244 ± 0.1
AACGAGCAAUAUUACGCCGC,-2.6 ± 0.24,-3.58 ± 0.39
UACAAGCAAUAUUACGUCUG,-0.521 ± 0.071,0.299 ± 0.08

Sequence,self-splicing fitness (ln) (30 °C),self-splicing fitness (ln) (37 °C)
CGCUAGCAAUAUUACGAAAA,-1.65 ± 0.16,-1.98 ± 0.15
AAUCAGCAAUAUUACGCGCC,-0.953 ± 0.12,-0.532 ± 0.13
UACCAGCAAUAUUACGGGCU,-2.89 ± 0.14,-1.96 ± 0.19
GAUUAGCAAUAUUACGGGGG,-4.1 ± 0.34,-2.72 ± 0.24
CUUCAGCAAUAUUACGCUCU,-3.79 ± 0.39,–
UUCCAGCAAUAUUACGUGGU,-3.26 ± 0.17,-2.08 ± 0.14
AGCCAGCAAUAUUACGCACC,-0.939 ± 0.18,-1.12 ± 0.18
UGCUAGCAAUAUUACGUCGA,-1.18 ± 0.13,-1.14 ± 0.18
GCUAAGCAAUAUUACGAUCU,-0.886 ± 0.13,0.178 ± 0.14
UGAUAGCAAUAUUACGGAUC,-2.86 ± 0.22,-2.13 ± 0.3
GUGAAGCAAUAUUACGAUAC,-0.501 ± 0.11,-0.461 ± 0.14
CCUGAGCAAUAUUACGAAUU,-2.96 ± 0.2,-2.15 ± 0.31
CACCAGCAAUAUUACGGUGC,-3.89 ± 0.21,-1.81 ± 0.15
AGAAAGCAAUAUUACGUGGG,-3.69 ± 0.17,-1.3 ± 0.12
GAGUAGCAAUAUUACGGGAA,-2.33 ± 0.21,-2.14 ± 0.19
ACCCAGCAAUAUUACGCGCG,-1.66 ± 0.077,-0.872 ± 0.097
GCGUAGCAAUAUUACGGUGC,-3.73 ± 0.32,-2.95 ± 0.47
UCCCAGCAAUAUUACGGCAA,-0.595 ± 0.1,0.128 ± 0.11
ACUAAGCAAUAUUACGGGUA,-1.77 ± 0.11,-0.856 ± 0.11
CGUUAGCAAUAUUACGGCUG,-0.2 ± 0.093,-0.439 ± 0.12
AUCGAGCAAUAUUACGUCAG,-3.36 ± 0.21,-2.99 ± 0.22
CUCAAGCAAUAUUACGAAGG,-1.11 ± 0.071,-1.42 ± 0.15
ACAAAGCAAUAUUACGCGAC,-2.02 ± 0.11,-1.16 ± 0.12
UGGUAGCAAUAUUACGACCC,0.0232 ± 0.27,-0.576 ± 0.36
AGCCAGCAAUAUUACGCGUC,-2.8 ± 0.13,-1.23 ± 0.12
